{
  "source": "the supplement of paper PMC12764529",
  "note": "± gives the half width of the 95% confidence interval.",
  "data": [
    {"assay": "folding stability dG unfold (combined trypsin and chymotrypsin); higher = more stable", "in_short": "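Sequencing followed digestion of designed mini-proteins with trypsin and chymotrypsin, each at 11 concentrations in threefold dilutions together with a no-protease condition. The mini-proteins were under 80 residues, had no cysteine, sat in a PA-tagged cDNA display construct, and were kept only if AlphaFold2 dimer inter-PAE was above 15. From the counts, Bayesian fitting gave K50, and unfolding free energy was derived against a sequence-predicted unfolded-state K50 and a shared folded-state K50, per protease or combined.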", "units": {"folding stability dG unfold": "kcal/mol"}, "values": [
      {"sequence": "SAGGSAMIRTFNIKFPGKSEEEALEAIKNLPEEVTEKIEEVKVEEIKKEGDSIYVKLTIKVPKEILSAGGSA [r15_244_JUSTAS]", "folding stability dG unfold": "0.00147 ± 0.51"},
      {"sequence": "SAKVFTAEEIKALAEELEKAGLEVEAVVLDKDGKIVAVAPKELLKPPPVEEVKEVKVEVEDDPEKLKAAKSA [r9_568_TrROS_Hall]", "folding stability dG unfold": "< -1"},
      {"sequence": "SAGGSAGGSAGGSMAVPQTVEVEAGAKPILVTTYRLPPDGAVVRIEYPGPAVVLEEELESAGGSAGGSAGGS [r10_630_JUSTAS]", "folding stability dG unfold": "< -1"},
      {"sequence": "SAGGNVEIERNPDGMITVEFPMKSPEQAIEEVKNFLQQQGWKIKDIPVERPPNGWVKITIPIKPPGASAGGS [r8_253_TrROS]", "folding stability dG unfold": "0.0774 ± 0.3"},
      {"sequence": "SAGGSDYVGRVQIDKVDPEDPGQVRINLEWWQPNGKAIPIEHTIPNEQLKNNPPDATIEFKMEPPPSAGGSA [r2_128_TrROS]", "folding stability dG unfold": "< -1"},
      {"sequence": "SAGGMLLYEKTVTSSPDDEALKLAKEIEEKLTPPDYITKIKVEVTPLPNGTYKVTIPIEILPPGYPKSAGGS [r16_128_JUSTAS]", "folding stability dG unfold": "-0.426 ± 0.19"},
      {"sequence": "SAGGPVIKIPIEIMMPNNDLNKFANEIAKELQDDGYKVKINPIEFEPQRDPDGKPDYVHFRATVEVQPSAGG [r13_707_TrROS]", "folding stability dG unfold": "< -1"},
      {"sequence": "SAGGSAGGSAGPPIYWRIEFENPGKKHTMTIPRDMPVDDIKEIADEIAKRFPMPISIEPVSAGGSAGGSAGG [r11_515_TrROS]", "folding stability dG unfold": "-0.565 ± 0.25"},
      {"sequence": "SAGGSSMEELIKAVLEAAEAGKKAVNVKMPLPDGGEIEILDGGVIRIIPPDGVPLEEKIPVSELILSAGGSA [r2_97_JUSTAS]", "folding stability dG unfold": "< -1"},
      {"sequence": "SAGGSAGGSAGGSGAEEAAKAVREAFPELGVPILVEVGYIPGTKELPVRVYIPSTRLELSAGGSAGGSAGGS [r4_312_TrMRF]", "folding stability dG unfold": "< -1"},
      {"sequence": "SAGGPMKVQVAVWRRDPDNGEPKEVEIPMTWDNIRELLDDIPPDGRYMVKIHSPGQPQTIPLEDLKELSAGG [r13_254_TrROS]", "folding stability dG unfold": "< -1"},
      {"sequence": "SAMTTLEKEGDVTITRTKLPDGTVVVTTEVPESRPLAELTTETITIYPDGTVTTTSQTLTLDPATGRLGSAG [r14_724_JUSTAS]", "folding stability dG unfold": "-0.567 ± 0.23"},
      {"sequence": "SAGGMTFVKVKPAPVKFGEGDKEYWVVEIVKVLEVEDVGEKPVVKAEKETIIIPKDNPDALKEAGIDASAGG [r13_670_TrMRF]", "folding stability dG unfold": "< -1"},
      {"sequence": "SAGGSAGGSAGMKVVLTVPESEAAKPEVLEAKAQEIKEKHPGEEVEVEFITNPFPPGTPLSAGGSAGGSAGG [r11_743_JUSTAS]", "folding stability dG unfold": "-0.108 ± 0.1"},
      {"sequence": "SAGGSAGGSAGGSIEIDVNPEAGQLKIEIEMPMPNPNGKPRGPMRMEQEFRIDDPEDIKSAGGSAGGSAGGS [r4_10_TrROS]", "folding stability dG unfold": "< -1"},
      {"sequence": "SMVKAKVEVNPETNAAVVEFELPELKVIALRVFDENNEVHTLVEVEIPPGPRVPLAEIPLKPNEELVLPLSA [r9_1172_TrMRF]", "folding stability dG unfold": "-0.685 ± 0.76"},
      {"sequence": "SAGGSAGGSAGGSGNFDKDGNKLTVYYPNTKKPVTIDFPVEDIFEFIKNLPPNVAKVDASAGGSAGGSAGGS [r4_282_TrMRF]", "folding stability dG unfold": "-0.869 ± 0.4"},
      {"sequence": "SSPGLVEVTIPLKIVLEPLAPDGTPAPRPVATVPIKTAASSEDPSAIEQAKEDVIKELKPEFPDAKFVVESA [r9_1112_JUSTAS]", "folding stability dG unfold": "< -1"},
      {"sequence": "SAGGPNIEIEQERHPDDGMWTINVKWDNPAEIVEEIAKEIREQNRDIPIMITGPDGNPIMIPLDDIRSAGGS [r8_236_TrROS]", "folding stability dG unfold": "-0.817 ± 0.39"},
      {"sequence": "SAGGSAGGSAGGKKTIWIPVKIEPVPDGVRIKFPDGNPIIIPPNHKVEHTPGWMRITLDSAGGSAGGSAGGS [r10_305_TrROS]", "folding stability dG unfold": "-0.908 ± 0.86"},
      {"sequence": "SAGGSAGGSAGGMENGKIEIYKKEKDTFIAKINNGDKVIIIEKIKSIEELKEALIELGYGSAGGSAGGSAGG [r7_91_TrMRF]", "folding stability dG unfold": "0.136 ± 0.17"},
      {"sequence": "SAGGSAGGSMEIVSTGSKEDAEEAVKEKVAAGEKARVVLRSPTDPTPVSEEEVTISEEELKEASAGGSAGGS [r12_241_JUSTAS]", "folding stability dG unfold": "< -1"},
      {"sequence": "SEALILDPNVETVSPVFYLLLSPEEAEERARELREELRAELEAAGLPLPEDVVIEVVPAESEEELRALLESA [r9_204_JUSTAS]", "folding stability dG unfold": "0.00109 ± 0.18"},
      {"sequence": "SAGGSAGGSAGPKPIEFEDPDNGRKIEYWPEENQISIENPGDGKEKEYPMDSPEELKEWMSAGGSAGGSAGG [r11_936_TrROS]", "folding stability dG unfold": "< -1"},
      {"sequence": "SAGSMEVKVEIPEEVLKKIESAPPGTVVEYTETVTITTTTTIPGPGNPVPLTSTTPSPIKLTYTKPSSPSAG [r5_946_JUSTAS]", "folding stability dG unfold": "-0.915 ± 0.31"},
      {"sequence": "SAGGSAGGSAGPMIKIGSTTRPFTPPLGGRLEYAPIDVDQSEEVAKEVAEELKPKGVIVNLSAGGSAGGSAG [r3_157_JUSTAS]", "folding stability dG unfold": "< -1"},
      {"sequence": "SAGGSAGGSAGGWVFDSDDYPKFQDAAKDHGLKPKSINDDDNTMTVDPEDPNRIRDAINESAGGSAGGSAGG [r7_285_TrROS]", "folding stability dG unfold": "< -1"},
      {"sequence": "SAGMSSSEVIDIDAGPEKLKELVAKIKKESPNYTIVVTDPETGKPTLLDPSELKNIPGPVKLTITKYPQSAG [r5_437_JUSTAS]", "folding stability dG unfold": "< -1"},
      {"sequence": "SAGGSAGGSEGQPIIIKIKMENPGNGKKHKFDIMVPPGFKNAEEQANRLMNNFGPVKDVEIYPSAGGSAGGS [r12_942_TrROS]", "folding stability dG unfold": "< -1"},
      {"sequence": "SAGGSAGGSAGGGENVTTEEKVLEVSYDPSKNSYSTLVKVTVKYPNGTTEEFEVVEEKLSAGGSAGGSAGGS [r10_1214_JUSTAS]", "folding stability dG unfold": "-0.0354 ± 0.21"},
      {"sequence": "SAGGSAGGSETSIVFLEEEVLVEEEITLYRDGTPTRERRVRTERVVIRVPVKPEEDVNNPLLLSAGGSAGGS [r12_713_JUSTAS]", "folding stability dG unfold": "< -1"},
      {"sequence": "SARPLTIMNPDGMMYRLDPDEGEIEFQNASDGEELKIKVKPKGNGVEIDIEFNGQPHEHKIPKGDWIMIPSA [r9_239_TrROS]", "folding stability dG unfold": "0.157 ± 0.33"},
      {"sequence": "SAGGSAGGSAGTSTTVTEKPDPNSNRTYTTTTVERTTADGTTTTVTTTVYPDSTTSTTTASAGGSAGGSAGG [r11_987_JUSTAS]", "folding stability dG unfold": "0.0978 ± 0.2"},
      {"sequence": "SAGGSAGGSAGGMPVEVTEVASVTTLPNGTTKITIKTPTGTVTFDDPSKIPSSILKLLSSAGGSAGGSAGGS [r10_748_JUSTAS]", "folding stability dG unfold": "0.211 ± 0.1"},
      {"sequence": "SAGGSAGGSAGSKTITFIMVHPDDGYISDMEMRYTDNGIEMEMEWIPVPKEDAEELKDLISAGGSAGGSAGG [r11_47_TrROS]", "folding stability dG unfold": "-0.044 ± 0.19"},
      {"sequence": "SAGGSAVPPSANVGPLKEKIEVTEDPEKGTKTYTRVLKDPATGKTIVETSVIPPDGSVTLVKTVLVSAGGSA [r15_146_JUSTAS]", "folding stability dG unfold": "-0.307 ± 0.12"},
      {"sequence": "SAMKTTETITVTVEMEPEVAEEVAEEIAEKIEKEKNYEITEVKVSVFPTDGKYVVRVPIKITYPTPELKSAG [r14_219_JUSTAS]", "folding stability dG unfold": "< -1"},
      {"sequence": "SAGGSAGGSAKITITAPPGETYRIKVKVKNENGEWKEVTRTIKVGEPLEDIEEVEIERIEPESAGGSAGGSA [r18_223_TrROS_Hall]", "folding stability dG unfold": "-0.146 ± 0.27"},
      {"sequence": "SAGGGMSTPVGVDSKLTEVREDTETGLITTTSVYRAGSEVTTVTESRPLGNPEDVTTLETTTTPASASAGGS [r16_89_JUSTAS]", "folding stability dG unfold": "-0.204 ± 0.15"},
      {"sequence": "SAGGSAGGSAMIVVTLDDPEEAREAVRARFGPEVEITPLETTTVGDRVFTKIAVRVPPELASAGGSAGGSAG [r3_87_JUSTAS]", "folding stability dG unfold": "-0.395 ± 0.24"},
      {"sequence": "MHKVEHTIKHPGYEIKIEVTMYPNPNGNYYVPIKIEREDPKDNKPKKKPIMVPFPPGDPDDFVDWALEEILS [r1_171_TrROS]", "folding stability dG unfold": "-0.207 ± 0.55"},
      {"sequence": "SAGMTTETTEKTAPDGKTRTTTVTYPSEEKAADTTTVVVTETPVETDGSERILTTTTVYKNGVKVATTGSAG [r14_958_JUSTAS]", "folding stability dG unfold": "< -1"},
      {"sequence": "SMPKVVKTVKITKSEAKEFLEKLDIGPDKSVTILETDPNGKSSLHTIGPNKILSSEPVDTLPNTWTIEISSA [r9_849_JUSTAS]", "folding stability dG unfold": "-0.416 ± 0.35"},
      {"sequence": "SAGGSAGGSSSPEEIKAEFKKKGYPKVEVKPVTPDTYLVTVTSPGTGKTTEYPITGSPSGKGLSAGGSAGGS [r12_170_JUSTAS]", "folding stability dG unfold": "< -1"},
      {"sequence": "DWKTRTVMFPVPPGDLEEAKDRAKELAKELPPGNKIEIEMPNPDGHYFMVTVTVDPNGEIDIDVSPGMRPIS [r1_350_TrROS]", "folding stability dG unfold": "-0.547 ± 0.38"},
      {"sequence": "SAGGSAGGSAGGSSTITIGDSEVSVTADPKAPVATASYPASGVTFTITRPDASVTITPTPSAGGSAGGSAGG [r7_156_JUSTAS]", "folding stability dG unfold": "< -1"},
      {"sequence": "SAGGSSMLSPSESLPLPPDEDVEVSLPSPLSAKLTYDPATGTVSVTVTDPNNPGVPLSSTTRPLTASAGGSA [r2_266_JUSTAS]", "folding stability dG unfold": "-0.203 ± 0.22"}
    ]}
  ]
}
